# Test: soluble on expression in E. coli; label from the status in PepcDB or PDB records
row,Sequence,soluble on expression in E. coli
1,MSLEKFVVQDIQIDGLQRVALGAALLKMPVRVGDSVDSQDVANIIKALYSSGNFEDVKVLRDGNTLMVQVKERPTIASVSFSGNKAIKEEQLKQNLEASSIRVGEALDRTTLSNIEKGLEDFYYSVGKYNATVKAVVTPLPRNRADLKFVFTEGVSAKIQQINFIGNQVFSDEELLSRFNLNVDVAWWNFLADDKYKKQVLAGDIEALRTYYLDRGYLKFQVDSTQVAISPDKKGVYITLNLNEGEPYTVSKVQFRGELMGKEAEFTSLIPFEIGETYNGSAVTRLEESVKKVLGESGYAYPQVRTIPEFDDEKQQVSLVVHVEAGKRVYVRDIRFVGNNSTRDEVLRREMRQMEGSWLNSKDIETGKTRLNRLGFFETVEVQTVRVPGSEDQVDLVYSVKEANSGNVNFGVGYGTESGVSFQVGLQQDNFLGSGNRVGVNAMINDYQKNLTLEYRDPYWNLDGVSLGGKVFYNQFEASEAGIVDYTNESYGTSLTWGFPFDELNRFEFGIGYTHNKIGNLTPYLQVENFLAAQASNIDSGGNLLTDDFDINLSWTRNNLNNSYFPTAGNHQRAFYKMTVPGSDAQYFKLQYDVRQYFPLTKKHEFTLLLRGRLGYGNGYGQTDGKDNLFPFYENFYAGGFTSLRGFGSNSAGPKAVYRDYSGSNNGSDTATDDSVGGNAIALASVELIVPTPFASEEARNQIRTSIFYDMASVWDTEFDYRGKADYGNQYYYDYSDPTNYRSSYGVALQWVSPMGPLVFSLAKPIKKYEGDDEEFFTFTIGRTFEGHHHHHH,not soluble
2,MSLEKKHSVNVEIENPPGRFFIPEDYVQNPVERLRLYRRLASSLDEEDLEEILEEMKDRFGEPPEEVKLLVDYFRLRVRASKLGIKKIRFDHSMVEIFPSRNSPFLNHPRYDRRSGSVVLYTRKDPVEFLMDMKGIITITTDPNSSSVDKLAAALEHHHHHH,soluble
3,MSLEKKITPSELELNEFIKIINEMSGIDLTDKKNILALKLNKFLEGTNTKNFSEFLGKLKSNRQLKQETLDFVTIGETYFLRELAQLKEIIYYAKSLEKRVNILSAPCSSGEEVYSLALLAAQNFIKDMYILGVDINSSVIEKAKLGKYQGRTLQRLSESEKRRFFLESEDKFYTINKNELCTCKFELCNVFEEKFSRLGKFDIIASRNMIIYFDHESKLKLMERFHRILNDKGRLYVGNADLIPETIYFKKIFSPRGVYYEKEGHHHHHH,soluble
4,MSLEKKTLLTHCPDAPGLISKITNICYKHQLNIIHNNEFVDNASGHFFMRTELEGYFNDATLLADLDHALPQGTRRKLISSSRKRIVILVTKEAHCLGDILMKNYDGSLDVDIAAVVGNYDTLQRLTERFDIPYHCVSHEGLSREAHEQALLDVIDQYQPDYLVLAKYMRVLTPAFVERFHHKIINIHHSFLPAFIGAKPYQQAYERGVKIIGATAHFVTNDLDEGPIIKQDVIPVDHTFSAQDMAQAGRDVEKNVLSKALNKVLNDHVFVYGNKTVILERHHHHHH,soluble
5,MSLELFKSVKLDKNSGTPLYMQLSDKIAEMIENGILPADLKLPSIRQMSALLNVNSVTIVSCYKHLETKGYVYSRPGSGTYVAVVLPKQSENYSDRNIILDELYQSDDLNLINNGHIKINENTINFASATPKSSLFPVENFKLVLNEVLDRDRGNAFDYQDSQGYYPLRSSVRILLEKRKIACHEENIQIISGAQQGIDIIAKALLRQGDYVITESPTYTGAIAVFKSRGAEIADVPLSCDGPNLNILEYNLKKYKPKLIYTIPSFQNPTGISYSNEKRKEILALAERYDAYIIEDDYVSGLDFENMGFATVKSMDKSDRVIFLKSFSKIFMPGLRLGFMVVPSSLKSYIIEAKHATDISTSGLIQRAFDLYIRKGMWDGHFKLMFNIYKERYYKTIEALERHLPQNVQFHKPGGGLNIWLELPANCFTGSLLKAASAENIVFAPGRIFYSSTPTNLNNIRLSFAAVDADEIERGIEKLSELILRFDRNKSEGHHHHHH,soluble
6,MSLELIEENDFDAIYIGNSKVMIKDYRGFVATLRILREKFPNAVLITDLEPFFYPLAVYLGVDAFDVRSLKIYSYEGLGFTPFSPVIWDRPNDPIEFAREMIKIIKIAIQEGKLRYLVENFLPTVMNVGILRIADKEHGDYLEKYTPVHDKTVVFISEHSISRPEVFRWRKRIEERFEPPKGIDLLLIFPCSAKKPYSRSRSHMMYRKVMKEALGEKVHRVHELVVTSPYGVVPREWEWLAKYDIVVTGHWSESEVRFAGELLAQTIEKYPDIPIVAHVEGGYREAVKYAMELVNRDVIFTAVGSSTISKESLDKLKKTLKEFDLRDAEKDYRRYRFYENVRKVFDYYFGLGAGEAVLPENAQIVGSKMLRLIVNNSQTGTFQEGVISVTPFGMQRIYDKLNSYWVEVDFDIRGDVFAAGVERADEGIRPNDIVGIVRDGRVVAVGRAVLSGEEMVRAKKGIAVRVRKRVKNKEGHHHHHH,not soluble
7,MSLENICDMNNKVKVAVLDTGIDKEHDYLKDNLVGGIAFECMHDYIFISDKFDDEDGHGTACASIIKKEYEDVELFVIKILRKDGITNIKVLEEALRYLLDTNIRLINLSLSVIGVESVKGLFEVCYELFRKGKIIVCSLANDFDLSYPAMFNNVIGVRGFTLDGDDSFWYNKKYDVQCVMDSNSYISCDINNSYRLPPKCNSYLSAKLTGKIAKILSEKPGITISDLNDKLESLATRNHWDSCDFDECSRIVNFKLDLYDKENALFEGHHHHHH,soluble
8,MSLEPDELFDIEMRLLLHGVRQVYGHDFTDYSEASIKRRITQWFATSGYGTLSEAQAAILRNREAFDSLLRGITVNVSEMFRDPAFFRALREEIVPHLKTYPFVKIWHAGCSSGEEAYSLAILLEEEGMKGRFRMYATDINNEVLQNAREGIFPLKEMQKYTRNYQAAGGKGAFSDYYLARYEHAIMIQSLRDQIVFASHNLAVDADFGEMHLILCRNVLIYFKPTLKERVLRLFDTCLIPGGFLCLGLKESLDGRRIASRYAETVERMRIYRKSYGQEQSEGHHHHHH,not soluble
9,MSLEPYRPICQNRPICGKIPRLNLTEGDTVLDREGYRPNVGIILINERNEVFWGKRVREHSWQFPQGGIKPGESPETAMYRELYEEVGLLPQHVKIVGRTRDWLRYDVPNNWVRREWRGSYRGQKQIWYLLRLTGRDCDVNLRATRHPEFDGWRWHQYWAPVDEVIDFKRDVYLEALKELSSRFLRGMESYEDFAARQPSGNREGHHHHHH,soluble
10,MSLEQSDRDRPLADRMRPRTLDEFAGQEHILAPGKPLRVQIDRDDIGSLIFWGPPGVGKTTLAKIIAAMTHADFIEFSAVLSGIKEIKQVMADAERVRQYGTRTILFVDEIHRFNRAQQDAFLPHVERGNIKLIGATTENPSFEVNSALLSRSRVYTLTPLTEEQIVGLLRRALTDTERGLAELHVTAEDIALARIAAYASGDARSGYNVLEVAAQAAGATSERIITEQIVADALQRRVLRYDKSGEEHYNLISALHKSVRNSDPDAALYWLARMIESGEDALYIARRVVRMAVEDIGLADPNALALTLAAKDAIDFLGMPEANLALAQAVVYLSIAPKSNALYTAYGDVQADVEKTAADPVPLHLRNAPTKLMKEIGYGSGYQYAHDLEAKVADMQCLPDNLKDRVYYHPTDQGIEQRIRTRLEEIRREGHHHHHH,soluble
11,MSLERTTHQSLNGSWQFQPVAATLHVTPQLQAPAGGWKKINVPDNWYRQGHDISGYAWYQTRFALDAHNASRVAHLVFHGVDYSADVWLNDRYLGHHTGYFQPFEFDVTGLVKPGENQLRVLVNSPLEQPQDWSLHKRLVKGIFSHHDTRPGGAWSERGQEKNTGGIWAPVELQFADRAAVRQLQVTPRKQATEANPQQWVVSTEADIHHDVSHETSVTVEARILPENFKGASFAFKQSQTLQPGGNHIAFSFPVDNPALWWPYEYGHPNLYRLELSVKDASGKLLDQREQVFGVREVKVDDGLQWFINGRRMFLRGTNYIASQWLAEMTPDRYRRDLEMMQAAHINAVRVHAHVTGQDFYELCDRMGILVTQDFPLLWGYSDDPDFIAEARRQAKDMVQLLQRHPSIISWTMHNEPPWDSPWMAQKYPDYHPDINRRLDALLYEDVSKLDTLRVVRKESATKEHEWMGWYFDHWLAFSRPAPTPWSTEFGAQALPNLKSLERMFSKALLWPDTEAKWQVWEYHNFQRKETFEFAGVKQGGNIEEFIANSQHYQARLIQFAVENYRRQRYAPVSAVFQFMFVENWPSINWGIVDYWREPKAGYEALRVAYQPVLPSLEWKEGHHHHHH,not soluble
12,MSLESRFCDICGKPAKTYQFGSLLCEDPECLKKAQKLRGGPAGHKLRVISVGSTNPVKVSAVEKAIEKTVGTMLVSSVDTKSGVSDQPQGFEETFKGAYNRAKGAFEKVNCVYGIGIEAGIVEIGEKKLDIHICVVYNGLDYSVGTSQAFQIPKDISDMINEGYECSKIAEETYRVKNIGQKNGIIGVLTDNNILREQLCIDSVVMAMIPKYRRNSQIREGHHHHHH,soluble
13,MSLESTNRLRYLIAGTGGVGGSIAGFLSLAGKDVTCIARGAHLQAIQQDGLKLKSDLKGEHALRINACTAEEYNGKADVIFVCVKGYSVDSITELIKRAAHDRTIVIPILNVYGTGPRIQRLVPGVTVLDGCIYIVGFVSGPGEITQMGTIFRLVYGAHRGILVPAGLMEAVQRDLQESGIKVEISSDINRDTFIKWSFISAMAVTGAYFDVPMGEVQKPGKVRDTFIGLSTESAALGKKLGIEFKEDIVTYNLKVIDKLAPESTASMQKDIARGHESEVQGLLFDMITAAEEQGIDVPTYREVAKKFIKQEGHHHHHH,soluble
14,MSLEVIKHDGPGRLGVIRLEPPVQTPALAGVDFTLSPFNSFFYPKDYKEYDFNLAPAIPLSYYTPDEIIKKAVKRLWEVDYSKFNAFYFPALKRTKHYEELFKIIEENDFDAIYIGNSKSMIKDYRGFVFTMRELREKFPNAVLITDLEPFFYPLAVYLGIDAFDIRSLKIYSYEGLGFTQFSPIIWDEPKEDPVEYAKKIIRLIRIAIHEGKLRYLVENFLPTSMNAGILRIADRENIEYLEKYTPVDDKTVVFISDYSMTRPEVYRWAKRVRERFEPPKDIELLLILPCSAKKPYSRSRSHTLYRSAVKEALGEKMHRVHELIVTSPYGVVPREWEWIAKYDIVVTGHWSEREVRLAGELLADVLEKYPDIPIIAHVEGGYREAVKLAMELSGRDVIFTAKGNSTTSRESLANLTKTLKEFDVRDVDKEYRRYRFYENIRKIFDFYFGLNAGYAVLPERAQVVGSKMLRLIVDNQQTGTFQEGVISVTPWGMQRIYDELHSYWVEIDFDVRGDIFAAGVGSADEKIRPNDWVGVVRDGKVVAVGRAVLSGEEMVKAKRGVAVKVKKKAKEGHHHHHH,soluble
15,MSLEYKYELTIDKLLQSGVSSNPDQIINYTGKREFTFKDFSKRVNTLAKALISIGVKKGDRVAVIDWDTYVYLEAYFAVPMVDAVLHTVNVRYPQDLIYYTMDHAEDKYVIVRDEFVPILSKNREAFYFIKGWIVYSETGQIPDSLSPKYVYDDLMKESYSDIELPQLSENDLATTFYTSGTTGIPKGVQFTHRQIVLHSISSGLALADDPINLTSRDVIMPLVPMFHVHAWGVPYMSIMSGRRYVLPGRYDFDHIIDLIDKYNVSVIAMVPSILYLIVTNPNVKKIAGRGIKAIVGGGALPEGLANAAEKLGITAISGYGLSETAPILTLATYNERVKAMPESEKKKFRLKTGIPIPLVQLRVVDDKMNDVPKDEKTIGEIVVRAPWLTSVYVKNKEGTEALWRGDWMHTGDLAVMDEYGYIRIVDREKDAVKSGGEFIPSLVLEDAISSCSGVVENAVVGRPDEKWGERPVAFYTGTAKPDEIRKHLIEMVNAGRIAKFWIPDDFINIKEFAKTSTGKIDKKVLREMIKKEGHHHHHH,soluble

# — the DeepSol protein solubility set
